Test results taken from publication PMC11932488, “Lytic coelomocyte death is tuned by cleavage but not phosphorylation of MLKL in echinoderms” (PLOS Pathogens, 2025).

Molecular target: the molecule itself
Test: cross-linking; coelomocytes infected with 10^8 CFU/ml AJ01 for 3 h; Triton X-100 insoluble pellet cross-linked 30 min at room temperature (DSS by the legend); Western blot

B1: AjCASP-1 (cysteine-aspartic specific protease-1 of Apostichopus japonicus), endogenous (enzyme, UniProt A0A6G5QC75 1-299, looked up)
chain: MAVADIPSSDYVFRERKRPIRGDEPSAIHFNLRYDMQQQTRGFAHIFNNDIFQKMDDRKGTRKDRDNLKETFTNLGFKVRVHDDCTASEIRDILLEASKVDHSDFDCFLCVFLTHGDDGIIYGSDGEPESFKGNGSVHSTNRTWLRLNDDVFDIFRGNNCSTLIGKPKIFIIQACRGGTAEFSAMIGSAATDYEEPLETSVGVKVTIPTEADFLISYSSSEGYYSFRELYKGTWFIQDLTRVLNEFGRNGDFIRMLTVVNKLVSERAIQGSGKPELEGKKQMPCFLSKLTRQLHLTAQT
notes: AjCASP-1, caspase-1 of Apostichopus japonicus, MH807451; 34 kDa monomer, self-cleaved to p20 (25 kDa) after AJ01 infection; In infected cells both the uncleaved and the self-cleaved form are present; also called AjCaspase-1; source: endogenous, A. japonicus coelomocyte lysate (uninfected or AJ01-infected)
**Q.** With B1 as the protein, how does the “stoichiometry N” value read?
**A.** Its value is 2.
